{"source": "patent US20110286958A1", "about": "“HPMA POLYMER PLATINUM CHELATES” (Access Pharmaceuticals, Inc., priority 2010, published 2011)", "key": {"[1]": {"conditions": "27° C.; cited from earlier work"}, "[2]": {"assay": "Release of small molecule Pt species from polymer-linker-Pt complexes at 37° C. in PBS", "format": "physicochemical", "conditions": "for Percent small platinum released from 1R,2R-DACH Pt(II) complex at 37° C. in PBS, 3 hours / Percent small platinum released from 1R,2R-DACH Pt(II) complex at 37° C. in PBS, 24 hours: 1R,2R-DACH stable chelate; for Percent small platinum released from cis-diammine Pt(II) complex at 37° C. in PBS, 3 hours / Percent small platinum released from cis-diammine Pt(II) complex at 37° C. in PBS, 24 hours: cis-diammine stable ligands", "text": "The compound tested comprised a poly(N-(2-hydroxypropyl)methacrylamide (10%)-co-methacrylamide (90%)) backbone polymer and either cis-diammine or 1R,2R-diaminocyclohexane (DACH) as the stable ligands/chelate of the Pt complex. The leaving-ligand comprised an N,O bidentate ligand with amidoaspartate (Asp) or amidomalonate (Ama)."}, "[3]": {"assay": "Relative toxicity of Compound 1 made by two different processes, body weight in mice", "format": "in vivo, Female C57BL/6 mice", "conditions": "murine study; new process versus process of U.S. Pat. No. 7,166,733", "protocol": "Biological evaluation can be carried out with the methods as described below.\nFemale C57BL/6 mice were randomized into 7 groups of 5 mice each. Each mouse was identified by ear notch and followed individually throughout the study. Animals were observed and weighed prior to dosing for establishment of dosing volumes. All mice were dosed by a single IP injection with either a) Compound 1 made by the processes described herein, b) Compound 1 made by the process described in U.S. Pat. No. 7,166,733, or c) vehicle control. Three doses of each compound were tested: 75 mg Pt/kg, 100 mg Pt/kg and 150 mg Pt/kg. Test compounds were dissolved in isotonic glucose and administered in a volume of 0.4 mL per 20 g body weight. Gross observations and body weights were recorded daily for 14 days. Percent body weight change for each animal on each day was calculated as the percent change from their body weight recorded on day 1 just prior to injection of compounds."}}, "note": "Ends that are not written are not given here. Ama = amidomalonate chelating group bound to Pt", "data": [{"compound": "NC1CCCCC1N.O.O.O=[N+]([O-])[O-].O=[N+]([O-])[O-].[Pt+2]", "note": "(stereo not drawn) [diaqua platinum species, 1R,2R-DACH-diaquaplatinum (II) dinitrate]", "values": [{"measurement": "pKa1", "setting": "[1]", "value": 5.4}, {"measurement": "pKa2", "setting": "[1]", "value": 7.2}]}, {"compound": "Gly-Phe-Leu-Gly-Ama=Pt= (GFLG-Ama; also: Pt complex via Ama (=Pt=))", "values": [{"measurement": "Percent small platinum released from 1R,2R-DACH Pt(II) complex at 37° C. in PBS, 3 hours", "setting": "[2]", "value": 0.7, "unit": "%"}, {"measurement": "Percent small platinum released from 1R,2R-DACH Pt(II) complex at 37° C. in PBS, 24 hours", "setting": "[2]", "value": 2.4, "unit": "%"}, {"measurement": "Percent small platinum released from cis-diammine Pt(II) complex at 37° C. in PBS, 3 hours", "setting": "[2]", "value": 0.7, "unit": "%"}, {"measurement": "Percent small platinum released from cis-diammine Pt(II) complex at 37° C. in PBS, 24 hours", "setting": "[2]", "value": 2.1, "unit": "%"}]}, {"compound": "Gly-Phe-Leu-Gly-Asp=Pt= (GFLGD; also: Pt conjugation (Asp=Pt=))", "values": [{"measurement": "Percent small platinum released from 1R,2R-DACH Pt(II) complex at 37° C. in PBS, 3 hours", "setting": "[2]", "value": 2.0, "unit": "%"}, {"measurement": "Percent small platinum released from 1R,2R-DACH Pt(II) complex at 37° C. in PBS, 24 hours", "setting": "[2]", "value": 6.5, "unit": "%"}, {"measurement": "Percent small platinum released from cis-diammine Pt(II) complex at 37° C. in PBS, 3 hours", "setting": "[2]", "value": 1.5, "unit": "%"}, {"measurement": "Percent small platinum released from cis-diammine Pt(II) complex at 37° C. in PBS, 24 hours", "setting": "[2]", "value": 4.7, "unit": "%"}]}, {"compound": "poly(HPMA)-GGG-Ama=PtDACH [Compound 1]", "values": [{"measurement": "safety profile", "setting": "[3]", "value": "safety profile identical to that of Compound 1 made by the processes described previously"}]}]}
